Test results: publication PMC10643145, “Structure and activation of the RING E3 ubiquitin ligase TRIM72 on the membrane” (Nature Structural & Molecular Biology, 2023)
Where a chain is given by its changes, count along the chain named.

How the values were obtained:
[1] = target: the molecule itself; test: SEC-MALS; Superdex 200 Increase 10/300 GL; 50 mM Tris-HCl pH 8.0, 300 mM NaCl, 2 mM TCEP; TRIM72 WT at 11.2, 5.6 and 2.8 mg/ml; dimer in solution
[2] = target: the molecule itself; test: cross-linking; time-dependent cross-linking of TRIM72 WT purified from mammalian cells (copurified with endogenous microvesicles)
[3] = target: the molecule itself; test: cryo-EM structure; cryo-ET and subtomogram averaging of proteoliposomes (80 mol% DOPS, 20 mol% cholesterol); 50 mM Tris-HCl pH 8.0, 150 mM NaCl, 1 mM TCEP; higher-order assembly of dimers on the lipid bilayer

B1: mouse TRIM72 wild type (tripartite motif-containing protein 72) (natural protein, UniProt Q1XH17 1-477, looked up)
chain: MSAAPGLLRQELSCPLCLQLFDAPVTAECGHSFCRACLIRVAGEPAADGTVACPCCQAPTRPQALSTNLQLSRLVEGLAQVPQGHCEEHLDPLSIYCEQDRTLVCGVCASLGSHRGHRLLPAAEAQARLKTQLPQQKMQLQEACMRKEKTVAVLEHQLVEVEETVRQFRGAVGEQLGKMRMFLAALESSLDREAERVRGDAGVALRRELSSLNSYLEQLRQMEKVLEEVADKPQTEFLMKFCLVTSRLQKILSESPPPARLDIQLPVISDDFKFQVWKKMFRALMPALEELTFDPSSAHPSLVVSSSGRRVECSDQKAPPAGEDTRQFDKAVAVVAQQLLSQGEHYWEVEVGDKPRWALGVMAADASRRGRLHAVPSQGLWLLGLRDGKILEAHVEAKEPRALRTPERPPARIGLYLSFADGVLAFYDASNPDVLTPIFSFHERLPGPVYPIFDVCWHDKGKNAQPLLLVGPEQEQA
notes: TRIM72 (MG53), Mus musculus, wild type, full length; Tight dimer in solution by SEC-MALS; higher-order assembly only on PS liposomes; also called TRIM72 WT; MG53; source: E. coli BL21(DE3), purified (AC, IEX, SEC); not shown: His6, N-terminal, cleaved; MBP, N-terminal, cleaved
For B1, the “stoichiometry N” value [1] was 2.

B2: human TRIM72 wild type, 2× Strep-tagged (natural protein, UniProt Q6ZMU5 1-477, looked up)
chain: MSAAPGLLHQELSCPLCLQLFDAPVTAECGHSFCRACLGRVAGEPAADGTVLCPCCQAPTRPQALSTNLQLARLVEGLAQVPQGHCEEHLDPLSIYCEQDRALVCGVCASLGSHRGHRLLPAAEAHARLKTQLPQQKLQLQEACMRKEKSVAVLEHQLVEVEETVRQFRGAVGEQLGKMRVFLAALEGSLDREAERVRGEAGVALRRELGSLNSYLEQLRQMEKVLEEVADKPQTEFLMKYCLVTSRLQKILAESPPPARLDIQLPIISDDFKFQVWRKMFRALMPALEELTFDPSSAHPSLVVSSSGRRVECSEQKAPPAGEDPRQFDKAVAVVAHQQLSEGEHYWEVDVGDKPRWALGVIAAEAPRRGRLHAVPSQGLWLLGLREGKILEAHVEAKEPRALRSPERRPTRIGLYLSFGDGVLSFYDASDADALVPLFAFHERLPRPVYPFFDVCWHDKGKNAQPLLLVGPEGAEA
notes: TRIM72 (MG53), human, wild type, full length; Copurified with endogenous microvesicles of about 100 nm; also called TRIM72 WT purified from mammalian cells; mammalian-expressed human TRIM72; source: HEK293T, transfected (polyethyleneimine), purified (StrepTrap HP, SEC on Superose 6 Increase)
B2: binds [2].

B3: mouse TRIM72^M138R (natural protein, UniProt Q1XH17 1-477, looked up)
chain: B1 chain with M138R
notes: TRIM72, Mus musculus, mutation on the outer side of the H1 helix of the coiled-coil domain; source: E. coli BL21(DE3), purified (AC, IEX, SEC); not shown: His6, N-terminal, cleaved; MBP, N-terminal, cleaved
B3: binds [3].
